Article PMC10716131, “Structural and biophysical comparisons of the pomalidomide- and CC-220-induced interactions of SALL4 with cereblon” (Scientific Reports, 2023)

Molecular target: T1, DDB1:CRBN complex, full-length human CRBN (residues 1–442) with N-terminal biotinylated Avi-tag, co-expressed … (human, UniProt Q96SW2 1-442; Q16531 1-1140, biotin on the Avi-tag (BirA, 100% efficiency))
T1 construct: cereblon (CRBN), human, full-length, residues 1–442; DDB1, human, residues 1–1140; A 6xGS linker stands between the non-cleavable Avi-tag and CRBN; The host is named (Sf21) only for the crystallisation construct; also called DDB1:N-avi-biotin-CRBN; DDB1:N-avi-CRBN; source: biotinylated with BirA; not shown: Avi-tag, N-terminal, kept
T1 sequence (Q96SW2 whole entry, chain 1 of 2, the tested form may be a part): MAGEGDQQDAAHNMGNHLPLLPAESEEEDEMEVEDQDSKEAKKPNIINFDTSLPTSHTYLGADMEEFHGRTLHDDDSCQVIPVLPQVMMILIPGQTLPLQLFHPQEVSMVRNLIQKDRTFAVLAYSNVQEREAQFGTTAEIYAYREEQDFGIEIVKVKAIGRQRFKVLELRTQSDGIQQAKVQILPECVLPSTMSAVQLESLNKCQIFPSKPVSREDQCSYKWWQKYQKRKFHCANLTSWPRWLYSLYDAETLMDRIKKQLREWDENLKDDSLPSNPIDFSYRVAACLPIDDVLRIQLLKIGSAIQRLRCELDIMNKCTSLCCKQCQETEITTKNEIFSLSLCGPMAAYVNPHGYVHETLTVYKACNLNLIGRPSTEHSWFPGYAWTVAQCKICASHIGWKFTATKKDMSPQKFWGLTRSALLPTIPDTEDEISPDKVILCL
T1 sequence (Q16531 whole entry, chain 2 of 2, the tested form may be a part): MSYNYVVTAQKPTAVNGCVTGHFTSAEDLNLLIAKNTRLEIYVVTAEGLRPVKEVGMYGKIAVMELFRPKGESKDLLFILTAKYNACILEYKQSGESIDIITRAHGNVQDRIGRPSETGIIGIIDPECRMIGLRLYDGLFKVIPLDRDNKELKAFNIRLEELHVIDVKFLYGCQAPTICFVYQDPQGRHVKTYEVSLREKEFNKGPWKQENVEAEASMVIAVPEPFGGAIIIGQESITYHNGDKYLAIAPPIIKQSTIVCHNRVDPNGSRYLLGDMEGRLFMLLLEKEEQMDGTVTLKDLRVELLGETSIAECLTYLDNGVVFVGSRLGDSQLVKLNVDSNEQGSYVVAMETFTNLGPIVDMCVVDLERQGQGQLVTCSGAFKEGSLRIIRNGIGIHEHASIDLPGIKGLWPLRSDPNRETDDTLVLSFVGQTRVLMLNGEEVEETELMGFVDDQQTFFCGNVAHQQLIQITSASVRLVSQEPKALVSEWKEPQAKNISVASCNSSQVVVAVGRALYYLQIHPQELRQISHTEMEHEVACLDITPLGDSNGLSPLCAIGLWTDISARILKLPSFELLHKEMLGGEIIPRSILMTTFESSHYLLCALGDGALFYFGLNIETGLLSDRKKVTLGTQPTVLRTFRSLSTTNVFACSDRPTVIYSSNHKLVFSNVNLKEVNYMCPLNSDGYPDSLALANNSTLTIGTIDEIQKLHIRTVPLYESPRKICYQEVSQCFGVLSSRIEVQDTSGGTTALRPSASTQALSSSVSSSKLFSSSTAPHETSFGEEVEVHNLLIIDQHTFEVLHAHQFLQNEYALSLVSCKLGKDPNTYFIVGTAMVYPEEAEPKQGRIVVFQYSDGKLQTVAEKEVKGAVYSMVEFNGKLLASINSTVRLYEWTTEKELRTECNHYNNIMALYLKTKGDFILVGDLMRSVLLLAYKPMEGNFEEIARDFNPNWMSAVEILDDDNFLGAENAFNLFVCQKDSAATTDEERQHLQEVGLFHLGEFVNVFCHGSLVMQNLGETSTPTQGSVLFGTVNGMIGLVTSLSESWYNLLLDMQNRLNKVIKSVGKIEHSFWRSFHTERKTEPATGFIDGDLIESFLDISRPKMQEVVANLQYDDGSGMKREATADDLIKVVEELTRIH
Test: SPR; DDB1:N-avi-biotin-CRBN immobilised on a streptavidin sensor (~5000–7000 RU), Biacore 8k, ABA method; SALL4 zinc fingers in 2X dilution series with 5 μM pomalidomide throughout; PBS pH 7.2, 5% glycerol, total NaCl ~300 mM, 0.01% P20, 1 mM TCEP, 0.05% DMSO; 15 °C; 30 µL/minute; 1:1 kinetic modelling
Settings: both partners purified

KD with pomalidomide: > 50 µM
B1: Human SALL4 ZF1(370–409) (domain or fragment, UniProt Q9UJQ4 370-409, looked up)
chain: DVKPKDEAALYKHKCKYCSKVFGTDSSLQIHLRSHTGERP
notes: not shown: Twin-Strep-ZZ, N-terminal, cleaved
